“Also recorded” adds a separate entry of the source. Like-named read-outs stand apart in the source and are kept apart here.
Tests used:
[1] = biological target: ErbB2 on cells (SKBR3, SK-OV-3, MCF7 tumor cell lines) (UniProt P04626); test: cell-based or functional assay
[2] = biological target: ErbB2 on cells (SKBR3, SK-OV-3, MCF7 tumor cell lines) (UniProt P04626); test: 5.0 × 10^11 phage on about 1.0 × 10^5 SKBR3 cells at 37° C.; surface bound phage eluted with low pH glycine, titered on E. coli TG1
[3] = biological target: ErbB2 on cells (SKBR3, SK-OV-3, MCF7 tumor cell lines) (UniProt P04626)
tumor = conditions: cited from earlier work
SKBR3 cells [4] = assay type: cell-based
SKBR3 cells [5] = assay type: cell-based; remark: listed apart in the source
SK-OV-3 cells [6] = conditions: in vitro; cited from earlier work
[7] = biological target: T1, ErbB2 (form in the assay not stated) (UniProt P04626 23-1255); test: method and form of ErbB2 not stated
T1 construct: also called c-erbB2

SKBR3 cells [8] = test: Staining of SKBR3 cells by phage antibodies or native scFv; conditions: high ErbB2 expression; for staining of SKBR3 cells by phage antibody: phage-displayed
SK-OV-3 cells [9] = test: Staining of SK-OV-3 cells by native scFv; assay type: cell-based; conditions: moderate ErbB2 expression
[10] = tested on: normal breast cell line HST578; test: Staining of normal breast cell line by phage antibodies or native scFv; assay type: cell-based
ErbB2 = ErbB2 (Homo sapiens, UniProt P04626); test: Epitope mapping competition assay: inhibition of phage binding by soluble scFv
Description: Bound phages were detected with an anti-M13 biotinylated Ab and streptavidin-PE.
Neither of these phage were isolated when the same library was selected on recombinant ErbB2. […] This was confirmed using a competition assay (FIG. 2).

MCF7 cells = test: Staining of MCF7 cells by phage antibodies or native scFv; assay type: cell-based; conditions: low ErbB2 expression
[11] = Gel filtration of native scFv; assay type: physicochemical
[12] = increasing concentrations of soluble scFv, bound phage by anti-M13 biotinylated Ab and streptavidin-PE, MFI

## C6.5 phage (anti-ErbB2 C6.5 scFv displayed on phage)
[1]
  phage titer, Lysed cell fraction (internalized phage): 6.8e+07
[2]
  titer of cell surface bound phage, 1st glycine wash: 1.2e+07
  titer of cell surface bound phage, 2nd glycine wash: 5.2e+06

## irrelevant anti-Botulinum phage (scFv)
[1]
  phage titer, Lysed cell fraction (internalized phage): 600000
[3]
  titer of cell surface bound phage, 1st glycine wash: 600000
  titer of cell surface bound phage, 2nd glycine wash: 100000

## C6.5 diabody: dimeric scFv from C6.5 V-genes, linker between VH and VL shortened from 15 to 5 amino acids
tumor; at 24 hours, diabody study
  % ID/g tumor: 6.5 % ID/g
tumor; retentions examined over 72 hours, cumulative AUC
  tumor:organ AUC ratios: greater than reported for other monovalent or divalent scFv molecules
SKBR3 cells [4]
  increase of titer after cell lysis from the second glycine wash: > 50 fold
  more phage bound to the cell surface than the anti-Botulinum phage: 30 times
  phage titer, 1st glycine wash: 1.8 × 10^7
  phage titer, 2nd glycine wash: 2.8 × 10^6
  phage titer, lysed cell fraction: 1.7 × 10^7
  recovery of phage from inside the cell, higher than for anti-Botulinum phage: 200 fold
SKBR3 cells [5]; 37° C.
  cells that had internalized phage: ~20%
SK-OV-3 cells [6]
  apparent affinity compared to C6.5 scFv: significantly higher

## C6.5 diabody phage
[1]
  cells that had internalized phage (confocal microscopy, SKBR3 cells): 20%
  phage titer, Lysed cell fraction (internalized phage): 1.7e+07
[2]
  titer of cell surface bound phage, 1st glycine wash: 1.8e+07
  titer of cell surface bound phage, 2nd glycine wash: 2.8e+06

B1: F5 scFv (native purified soluble scFv) (scFv, not shown: small tags and cut ends)
scFv: QVQLVESGGGLVQPGGSLRLSCAASGFTFRSYAMSWVRQAPGKGLEWVSAISGRGDNTYYADSVKGRFTISRDNSKNTLYLQMNSLRAEDTAVYYCAKMTSNAFAFDYWGQGTLVTVSSGGGGSGGGGSGGGGSQSVLTQPPSVSGAPGQRVTISCTGSSSNIGAGYGVHWYQQLPGTAPKLLIYGNTNRPSGVPDRFSGFKSGTSASLAITGLQAEDEADYYCQFYDSSLSGWVFGGGTKLTVLG
notes: also called 3TF5; scFv-F5
[7]
  Kd: 320 nM

B2: F5: internalizing human anti-c-erbB-2 scFv, SEQ ID NO: 1, ATCC plasmid deposit PTA-7843, also referred to as 3TF5 (protein)
scFv: QVQLVESGGGLVQPGGSLRLSCAASGFTFRSYAMSWVRQAPGKGLEWVSAISGRGDNTYYADSVKGRFTISRDNSKNTLYLQMNSLRAEDTAVYYCAKMTSNAFAFDYWGQGTLVTVSSGGGGSGGGGSGGGGSQSVLTQPPSVSGAPGQRVTISCTGSSSNIGAGYGVHWYQQLPGTAPKLLIYGNTNRPSGVPDRFSGFKSGTSASLAITGLQAEDEADYYCQFYDSSLSGWVFGGGTKLTVLG
SKBR3 cells [8]; native purified scFv
  staining of SKBR3 cells by native purified scFv: intensely stain
SKBR3 cells [8]
  staining of SKBR3 cells by phage antibody: intensely stain
SKBR3 cells [8]; listed as 3TF5 phage
  staining of SKBR3 cells by phage antibody: more intensely than C6.5 phage
SK-OV-3 cells [9]
  staining of SK-OV-3 cells by native purified scFv: intermediate staining
SKBR3 cells [5]
  internalization of native purified scFv by SKBR3 cells (in words): efficiently internalized; also recorded: internalized faster than C6.5
  internalization of phage by SKBR3 cells at 4° C. (in words): no internalization
SKBR3 cells [5]; 37° C.
  cells that had internalized phage: greater than 95%
  internalization of phage by SKBR3 cells (in words): internalized
[10]
  staining of normal breast cell line HST578 by native purified scFv: do not stain
ErbB2; competition assay
  epitope of F5 and C1 relative to each other: recognize the same epitope
  epitope relative to C6.5: a different epitope than C6.5
  epitope relative to Genentech anti-ErbB2 antibody 4D5: recognize a different epitope
ErbB2; [12]
  inhibition of binding of C6.5 phage by soluble scFv: not
  inhibition of binding of F5 or C1 phage by soluble scFv: inhibited
MCF7 cells; native purified scFv
  staining of MCF7 cells by native purified scFv: minimal staining
MCF7 cells; phage-displayed
  staining of MCF7 cells by phage antibody: much more intensely then C6.5
[11]
  oligomeric state by gel filtration: only as a monomer with no appreciable dimerization or aggregation
